Source: patent US20250129168A1 (DREN BIO, published 2025)

Tests used:
[1] = molecular target: T1, Fc gamma receptor CD16a F variant (human, UniProt P08637); experiment: ELISA, plate coated with recombinant huCD16a (F variant), detection with peroxidase anti-human IgG F(ab')2, OD 450 nm - 630 nm
T1 construct: recombinant protein coated on the ELISA plate; also called recombinant huCD16a

[2] = molecular target: T2, human Dectin-1 (isoform not given) (human, UniProt Q9BXN2 1-247); experiment: flow cytometry on Dectin-1-expressing HEK cells
T2 chain: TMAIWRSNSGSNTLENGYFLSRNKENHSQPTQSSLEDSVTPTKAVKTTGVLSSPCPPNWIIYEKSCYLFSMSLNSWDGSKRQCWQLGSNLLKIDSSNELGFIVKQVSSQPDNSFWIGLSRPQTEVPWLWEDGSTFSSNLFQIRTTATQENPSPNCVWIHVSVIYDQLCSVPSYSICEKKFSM

Trop-2 = molecular target: T3, Trop-2 (human, UniProt P09758 27-323); experiment: flow cytometry on A431 cells (Trop-2-expressing)
T3 construct: whole, on cells
T3 sequence (looked up): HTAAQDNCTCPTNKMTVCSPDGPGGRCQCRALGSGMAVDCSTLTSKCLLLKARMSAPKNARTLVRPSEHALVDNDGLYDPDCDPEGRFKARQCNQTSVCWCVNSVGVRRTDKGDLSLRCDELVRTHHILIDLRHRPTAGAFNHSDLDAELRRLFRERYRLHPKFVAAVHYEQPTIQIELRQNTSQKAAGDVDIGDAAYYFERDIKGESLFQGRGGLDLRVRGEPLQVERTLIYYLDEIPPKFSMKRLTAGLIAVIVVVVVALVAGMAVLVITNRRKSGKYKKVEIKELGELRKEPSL

[3] = molecular target: T2, human Dectin-1 (isoform not given); experiment: flow cytometry on Dectin-1-expressing HEK cells, 4PL fit [upper panel]
human Dectin-1 isoform A [4] = molecular target: T4, human Dectin-1 isoform A (human, UniProt Q9BXN2 1-247); experiment: flow cytometry on HEK-Blue hDectin-1a cells (summary table)
T4 construct: On HEK-Blue hDectin-1a cells (Invivogen); also called hDectin-1a
T4 sequence: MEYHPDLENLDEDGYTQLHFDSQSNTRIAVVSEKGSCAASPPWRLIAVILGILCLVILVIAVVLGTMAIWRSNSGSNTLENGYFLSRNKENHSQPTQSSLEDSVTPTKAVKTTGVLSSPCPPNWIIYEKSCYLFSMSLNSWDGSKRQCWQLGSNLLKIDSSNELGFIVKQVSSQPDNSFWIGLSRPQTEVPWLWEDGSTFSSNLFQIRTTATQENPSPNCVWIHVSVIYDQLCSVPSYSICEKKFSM

[5] = molecular target: T5, cynomolgus monkey Dectin-1 (cynomolgus monkey, UniProt A0A2K5UXY6 35-281); experiment: flow cytometry, cynomolgus monkey monocytes
T5 construct: whole, on cells; also called cynomolgus Dectin-1; cyno Dectin-1
T5 sequence: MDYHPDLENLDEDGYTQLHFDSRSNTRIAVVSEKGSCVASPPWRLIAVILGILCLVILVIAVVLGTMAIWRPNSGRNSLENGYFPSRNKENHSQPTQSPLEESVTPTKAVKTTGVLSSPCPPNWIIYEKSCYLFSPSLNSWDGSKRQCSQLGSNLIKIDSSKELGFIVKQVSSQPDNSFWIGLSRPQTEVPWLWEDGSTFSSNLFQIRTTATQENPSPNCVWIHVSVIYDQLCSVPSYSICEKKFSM

[6] = molecular target: T2, human Dectin-1 (isoform not given); experiment: cell-based or functional assay
human Dectin-1 isoform A [7] = molecular target: T4, human Dectin-1 isoform A; experiment: flow cytometry on HEK293F hDectin-1a FL cells (summary table)
[8] = molecular target: T2, human Dectin-1 (isoform not given); experiment: flow cytometry on human monocytes
human Dectin-1 isoform A [9] = molecular target: T4, human Dectin-1 isoform A; experiment: flow cytometry on HEK293F hDectin-1a FL cells
human Dectin-1 isoform B [10] = molecular target: T6, human Dectin-1 isoform B (human, UniProt Q9BXN2 1-247); experiment: flow cytometry on HEK-Blue hDectin-1b cells
T6 construct: On HEK-Blue hDectin-1b cells (Invivogen); also called hDectin-1b
T6 sequence: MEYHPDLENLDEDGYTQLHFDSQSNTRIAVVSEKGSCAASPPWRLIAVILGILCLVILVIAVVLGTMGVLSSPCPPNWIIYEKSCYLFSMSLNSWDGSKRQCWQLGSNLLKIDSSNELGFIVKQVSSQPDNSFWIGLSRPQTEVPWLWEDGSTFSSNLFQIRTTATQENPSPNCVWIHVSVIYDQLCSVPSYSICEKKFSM

[11] = molecular target: T2, human Dectin-1 (isoform not given); experiment: flow cytometry on human monocytes (summary table)
human Dectin-1 isoform B [12] = molecular target: T6, human Dectin-1 isoform B; experiment: flow cytometry on HEK-Blue hDectin-1b cells (summary table)
human Dectin-1 isoform A [13] = molecular target: T4, human Dectin-1 isoform A; experiment: flow cytometry on HEK-Blue hDectin-1a cells

T1 sequence (P08637 17-208 limits assumed, change not shown): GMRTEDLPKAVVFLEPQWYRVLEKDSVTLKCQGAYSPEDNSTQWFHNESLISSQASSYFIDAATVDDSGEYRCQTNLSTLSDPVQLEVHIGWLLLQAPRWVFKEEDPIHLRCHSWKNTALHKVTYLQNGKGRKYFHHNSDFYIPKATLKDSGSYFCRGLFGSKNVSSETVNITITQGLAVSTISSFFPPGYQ

B1: 2M24 CD20 NF (bispecific antibody)
chain 1: not shown
chain 2: not shown
chain 3: not shown
chain 4: QIVLSQSPAILSASPGEKVTMTCRASSSVSYIHWFQQKPGSSPKPWIYATSNLASGVPVRFSGSGSGTSYSLTISRVEAEDAATYYCQQWTSNPPTFGGGTKLEIKRTVAAPSVFIFPPSDEQLKSGTASVVCLLNNFYPREAKVQWKVDNALQSGNSQESVTEQDSKDSTYSLSSTLTLSKADYEKHKVYACEVTHQGLSSPVTKSFNRGEC
modifications: non-fucosylated Fc glycan
[1]
  EC50 (read off the curve): ~0.1 µg/mL

B2: 2M24/Trop-2 hIgG1 bispecific antibody (bispecific antibody, V domains shown)
VH 1: QVQLVQSGAEVKKPGASVKVSCKSSGYTFTDYYIHWVRQAPGQGLEWMGWINPNSGDTNYAQKFQGRITMTRDTSISTAYLELSRLRSDDTAVFYCARNSGSYSFGYWGQGTLVTVSS
VL 1: DIQMTQSPSSVSASVGDRVTITCRASQGISSWLAWYQQKPGKAPKLLIFGASSLQSGVPSRFSGSGSGTDFTLTVSSLQPEDFATYYCQQAYSFPFTFGPGTKVDIE
VH 2: QVQLQQSGSELKKPGASVKVSCKASGYTFTNYGMNWVKQAPGQGLKWMGWINTYTGEPTYTDDFKGRFAFSLDTSVSTAYLQISSLKADDTAVYFCARGGFGSSYWYFDVWGQGSLVTVSS
VL 2: DIQLTQSPSSLSASVGDRVSITCKASQDVSIAVAWYQQKPGKAPKLLIYSASYRYTGVPDRFSGSGSGTDFTLTISSLQPEDFAVYYCQQHYITPLTFGAGTKVEIK
notes: Human IgG1; also called anti-Dectin-1 (2M24)/anti-Trop-2 bispecific antibody
[2]
  EC50 (read off the curve): ~3 nM

B3: parental anti-Trop2 monospecific antibody (antibody, V domains shown)
VH: B2 VH 2
VL: B2 VL 2
Trop-2
  EC50 (read off the curve): ~8 nM

B4: 2M24/Nectin-4 hIgG1 bispecific antibody (bispecific antibody, V domains shown)
VH 1: B2 VH 1
VL 1: B2 VL 1
VH 2: EVQLVESGGGLVQPGGSLRLSCAASGFTFSSYNMNWVRQAPGKGLEWVSYISSSSSTIYYADSVKGRFTISRDNAKNSLSLQMNSLRDEDTAVYYCARAYYYGMDVWGQGTTVTVSS
VL 2: DIQMTQSPSSVSASVGDRVTITCRASQGISGWLAWYQQKPGKAPKFLIYAASTLQSGVPSRFSGSGSGTDFTLTISSLQPEDFATYYCQQANSFPPTFGGGTKVEIK
notes: Human IgG1
[3]
  EC50: 2.65 nM

B5: commercial anti-Dectin-1 antibody 15E2 (antibody, V domains shown)
VH: QWQLQQSGAELARPGASWKMSCKASGYTFTTYTMHWWKQRPGQGLEWIGYINPSSGYTNYNQKFKDKATLTADKSSSTASMQLSSLTSEDSAWYYCARERAVLVPYAMDYWGQGTSVTVSS
VL: QIVLTQSPAVMSASPGEKWTITCTASSSLSYMHWFQQKPGTSPKLWLYSTSILASGVPTRFSGSGSGTSYSLTISRMEAEDAATYYCQQRSSSPFTFGSGTKLEIK
Human Dectin-1 isoform A [4]
  EC50: 1.2 nM
[5]
  EC50: 14 nM
[6]
  IFNg secretion in PBMC, immobilized antibody (fold change to isotype): 1.6 fold change to isotype
  IL6 secretion in PBMC, immobilized antibody (fold change to isotype): 2.6 fold change to isotype
  TNFa secretion in PBMC, immobilized antibody (fold change to isotype): 3 fold change to isotype
Human Dectin-1 isoform A [7]
  EC50: 1.4 nM
[8]
  EC50: 0.6 nM
Human Dectin-1 isoform A [9]
  EC50: 1.4 nM
Human Dectin-1 isoform B [10]
  EC50: 9.3 nM
[11]
  EC50: 0.6 nM
Human Dectin-1 isoform B [12]
  EC50: 9.3 nM
Human Dectin-1 isoform A [13]
  EC50: 1.2 nM
